The values below come from article PMC10989899, “MomL inhibits bacterial antibiotic resistance through the starvation stringent response pathway” (mLife, 2022).

Broadly, the Kd is the concentration at which binding is half-saturated. A high value points to weaker binding.

The subject of data set [1] is RpoS (Pseudomonas aeruginosa PAO1). As to the kind of experiment: SPR. To be noted: binding buffer not stated, SPR: PBS, temperature not stated.
For data set [2], the target named is T1, LasR (Pseudomonas aeruginosa, UniProt P25084).
T1 construct: recombinant, pET28a, E. coli BL21(DE3), Ni-NTA
As to the kind of experiment: EMSA, LasR binding to relA promoter DNA. Type of data set: biochemical. To be noted: AHL required for DNA binding; the AHL added in EMSA is not named, 3-O-C12-HSL is that of LasR expression; 37 °C. (In general: In EMSA bound probe runs differently from free probe, usually more slowly.)

T1 sequence (P25084 whole entry): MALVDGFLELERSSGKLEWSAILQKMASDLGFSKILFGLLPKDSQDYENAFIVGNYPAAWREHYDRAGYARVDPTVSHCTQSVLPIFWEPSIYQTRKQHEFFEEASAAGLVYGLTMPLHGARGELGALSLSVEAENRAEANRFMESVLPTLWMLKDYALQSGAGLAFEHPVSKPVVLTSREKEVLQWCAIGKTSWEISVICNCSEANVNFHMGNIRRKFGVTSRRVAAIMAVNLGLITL

In data set [1], H2-T6SS promoter DNA (SPR) came in with a dissociation constant Kd of 87.6 nM.

In the case of `CCCCCCCCCC(=O)CC(=O)N[C@H]1CCOC1=O` [3-O-C12-HSL], the “EMSA, LasR binding to relA promoter DNA” value in data set [2] was “This binding depended on the presence of AHLs”.
